{
  "source": "paper PMC9672952",
  "key": {"[1]": {"target": "EfmRseP with substitution P367A (Enterococcus faecium P21) (UniProt I3U2R6)"}, "[2]": {"target": "RseP from Enterococcus faecium P21, C-terminal 6× His-tag (Enterococcus faecium P21) (UniProt I3U2R6)"}, "[3]": {"target": "EfmRseP with substitution E19A (Enterococcus faecium P21) (UniProt I3U2R6)"}, "[4]": {"target": "Fusion of LpRseP (1–201, 328–425) and EfmRseP (202–327) (Lactiplantibacillus plantarum WCFS1 | Enterococcus faecium P21) (UniProt I3U2R6)"}, "[5]": {"target": "Fusion of LpRseP (1–171, 222–425) and EfmRseP (172–221) (Lactiplantibacillus plantarum WCFS1 | Enterococcus faecium P21) (UniProt I3U2R6)"}, "[6]": {"target": "Fusion of EfmRseP (1–200) and LpRseP (201–425) (Enterococcus faecium P21 | Lactiplantibacillus plantarum WCFS1) (UniProt I3U2R6)"}, "[7]": {"target": "Fusion of EfmRseP (1–325) and LpRseP (326–425) (Enterococcus faecium P21 | Lactiplantibacillus plantarum WCFS1) (UniProt I3U2R6)"}, "[8]": {"target": "Fusion of LpRseP (1–171, 326–425) and EfmRseP (172–325) (Lactiplantibacillus plantarum WCFS1 | Enterococcus faecium P21) (UniProt I3U2R6)"}, "[9]": {"target": "EfmRseP with substitution D372A (Enterococcus faecium P21) (UniProt I3U2R6)"}, "[10]": {"target": "Fusion of LpRseP (1–221) and EfmRseP (222–422) (Lactiplantibacillus plantarum WCFS1 | Enterococcus faecium P21) (UniProt I3U2R6)"}, "[11]": {"target": "Fusion of LpRseP (1–201, 222–425) and EfmRseP (202–221) (Lactiplantibacillus plantarum WCFS1 | Enterococcus faecium P21) (UniProt I3U2R6)"}, "[12]": {"target": "EfmRseP with substitution P369A (Enterococcus faecium P21) (UniProt I3U2R6)"}, "[13]": {"target": "Fusion of EfmRseP (1–221) and LpRseP (222–425) (Enterococcus faecium P21 | Lactiplantibacillus plantarum WCFS1) (UniProt I3U2R6)"}, "[14]": {"target": "Truncation of EfmRseP (1–39, 139–422) Δ40–138 (Enterococcus faecium P21) (UniProt I3U2R6)"}, "[15]": {"target": "Fusion of EfmRseP (1–32) and LpRseP (33–425) (Enterococcus faecium P21 | Lactiplantibacillus plantarum WCFS1) (UniProt I3U2R6)"}, "[16]": {"target": "RseP from Lactiplantibacillus plantarum WCFS1, C-terminal 6× His-tag (Lactiplantibacillus plantarum WCFS1)"}, "[17]": {"target": "EfmRseP with substitution N359A (Enterococcus faecium P21) (UniProt I3U2R6)"}, "[18]": {"target": "Fusion of EfmRseP (1–170) and LpRseP (171–425) (Enterococcus faecium P21 | Lactiplantibacillus plantarum WCFS1) (UniProt I3U2R6)"}, "[19]": {"target": "EfmRseP with substitution N364A (Enterococcus faecium P21) (UniProt I3U2R6)"}, "[20]": {"target": "Fusion of LpRseP (1–328) and EfmRseP (329–422) (Lactiplantibacillus plantarum WCFS1 | Enterococcus faecium P21) (UniProt I3U2R6)"}, "[21]": {"target": "EfmRseP with the triple alanine substitution of the HExxH motif (Enterococcus faecium P21) (UniProt I3U2R6)"}, "[22]": {"target": "EfmRseP with substitution H22A (Enterococcus faecium P21) (UniProt I3U2R6)"}, "[23]": {"target": "EfmRseP with substitution H18A (Enterococcus faecium P21) (UniProt I3U2R6)"}, "[24]": {"target": "RseP from Lactococcus lactis IL1403, without His-tag (Lactococcus lactis IL1403)"}, "[25]": {"target": "RseP from Staphylococcus aureus ATCC 14458, without His-tag (Staphylococcus aureus ATCC 14458)"}, "[26]": {"target": "RseP from Staphylococcus arlettae LMGT 4134, without His-tag (Staphylococcus arlettae LMGT 4134)"}, "[27]": {"target": "RseP from Staphylococcus haemolyticus, without His-tag (Staphylococcus haemolyticus)"}, "[28]": {"target": "RseP from Enterococcus faecium P21, without His-tag (Enterococcus faecium P21) (UniProt I3U2R6)"}, "[29]": {"target": "RseP from Enterococcus faecalis V583, without His-tag (Enterococcus faecalis V583) (UniProt Q9RPP2)"}, "[30]": {"target": "RseP from Lactiplantibacillus plantarum WCFS1, without His-tag (Lactiplantibacillus plantarum WCFS1)"}},
  "data": [
    {"substance": "Enterocin K1 (peptide)", "values": [
      {"measurement": "MIC50 of EntK1 (growth inhibition, microtiter plate) towards L. plantarum expressing this RseP variant", "setting": "[1]", "value": 0.004, "unit": "µM"},
      {"measurement": "MIC50 of EntK1 (growth inhibition, microtiter plate) towards L. plantarum expressing this RseP variant", "setting": "[2]", "value": "< 0.002", "unit": "µM"},
      {"measurement": "MIC50 of EntK1 (growth inhibition, microtiter plate) towards L. plantarum expressing this RseP variant", "setting": "[3]", "value": 0.01, "unit": "µM"},
      {"measurement": "MIC50 of EntK1 (growth inhibition, microtiter plate) towards L. plantarum expressing this RseP variant", "setting": "[4]", "value": 0.09, "unit": "µM"},
      {"measurement": "MIC50 of EntK1 (growth inhibition, microtiter plate) towards L. plantarum expressing this RseP variant", "setting": "[5]", "value": "> 22", "unit": "µM"},
      {"measurement": "MIC50 of EntK1 (growth inhibition, microtiter plate) towards L. plantarum expressing this RseP variant", "setting": "[6]", "value": "> 22", "unit": "µM"},
      {"measurement": "MIC50 of EntK1 (growth inhibition, microtiter plate) towards L. plantarum expressing this RseP variant", "setting": "[7]", "value": "< 0.002", "unit": "µM"},
      {"measurement": "MIC50 of EntK1 (growth inhibition, microtiter plate) towards L. plantarum expressing this RseP variant", "setting": "[8]", "value": "< 0.002", "unit": "µM"},
      {"measurement": "MIC50 of EntK1 (growth inhibition, microtiter plate) towards L. plantarum expressing this RseP variant", "setting": "[9]", "value": 0.7, "unit": "µM"},
      {"measurement": "MIC50 of EntK1 (growth inhibition, microtiter plate) towards L. plantarum expressing this RseP variant", "setting": "[10]", "value": "> 22", "unit": "µM"},
      {"measurement": "MIC50 of EntK1 (growth inhibition, microtiter plate) towards L. plantarum expressing this RseP variant", "setting": "[11]", "value": "> 22", "unit": "µM"},
      {"measurement": "MIC50 of EntK1 (growth inhibition, microtiter plate) towards L. plantarum expressing this RseP variant", "setting": "[12]", "value": "< 0.02", "unit": "µM"},
      {"measurement": "MIC50 of EntK1 (growth inhibition, microtiter plate) towards L. plantarum expressing this RseP variant", "setting": "[13]", "value": 0.7, "unit": "µM"},
      {"measurement": "MIC50 of EntK1 (growth inhibition, microtiter plate) towards L. plantarum expressing this RseP variant", "setting": "[14]", "value": 2.7, "unit": "µM"},
      {"measurement": "MIC50 of EntK1 (growth inhibition, microtiter plate) towards L. plantarum expressing this RseP variant; footnote: low expression may contribute", "setting": "[15]", "value": "> 22", "unit": "µM"},
      {"measurement": "MIC50 of EntK1 (growth inhibition, microtiter plate) towards L. plantarum expressing this RseP variant", "setting": "[16]", "value": "> 22", "unit": "µM"},
      {"measurement": "MIC50 of EntK1 (growth inhibition, microtiter plate) towards L. plantarum expressing this RseP variant", "setting": "[17]", "value": "> 22", "unit": "µM"},
      {"measurement": "MIC50 of EntK1 (growth inhibition, microtiter plate) towards L. plantarum expressing this RseP variant", "setting": "[18]", "value": "> 22", "unit": "µM"},
      {"measurement": "MIC50 of EntK1 (growth inhibition, microtiter plate) towards L. plantarum expressing this RseP variant", "setting": "[19]", "value": 0.004, "unit": "µM"},
      {"measurement": "MIC50 of EntK1 (growth inhibition, microtiter plate) towards L. plantarum expressing this RseP variant", "setting": "[20]", "value": "> 22", "unit": "µM"},
      {"measurement": "MIC50 of EntK1 (growth inhibition, microtiter plate) towards L. plantarum expressing this RseP variant", "setting": "[21]", "value": 2.7, "unit": "µM"},
      {"measurement": "MIC50 of EntK1 (growth inhibition, microtiter plate) towards L. plantarum expressing this RseP variant", "setting": "[22]", "value": 0.01, "unit": "µM"},
      {"measurement": "MIC50 of EntK1 (growth inhibition, microtiter plate) towards L. plantarum expressing this RseP variant", "setting": "[23]", "value": 0.02, "unit": "µM"},
      {"measurement": "MIC50 of EntK1 (growth inhibition, microtiter plate) towards L. plantarum expressing this RseP", "setting": "[24]", "value": 0.09, "unit": "µM"},
      {"measurement": "MIC50 of EntK1 (growth inhibition, microtiter plate) towards L. plantarum expressing this RseP; footnote: low expression may contribute", "setting": "[25]", "value": "> 22", "unit": "µM"},
      {"measurement": "MIC50 of EntK1 (growth inhibition, microtiter plate) towards L. plantarum expressing this RseP; footnote: low expression may contribute", "setting": "[26]", "value": "> 22", "unit": "µM"},
      {"measurement": "MIC50 of EntK1 (growth inhibition, microtiter plate) towards L. plantarum expressing this RseP", "setting": "[27]", "value": 0.17, "unit": "µM"},
      {"measurement": "MIC50 of EntK1 (growth inhibition, microtiter plate) towards L. plantarum expressing this RseP", "setting": "[28]", "value": 0.01, "unit": "µM"},
      {"measurement": "MIC50 of EntK1 (growth inhibition, microtiter plate) towards L. plantarum expressing this RseP", "setting": "[29]", "value": 0.04, "unit": "µM"},
      {"measurement": "MIC50 of EntK1 (growth inhibition, microtiter plate) towards L. plantarum expressing this RseP", "setting": "[30]", "value": "> 22", "unit": "µM"}
    ]}
  ]
}
